Biological target: P301S human tau, T34 isoform (1N4R), of P301S tg mice (line PS19) (human) (UniProt P10636)
Assay: cell-based or functional assay

P301S human tau, T34 isoform (1N4R), of P301S tg mice (line PS19) (human), sequence (P10636 other isoform, or with tags, fused parts or gaps P301S P301S P301S P301S): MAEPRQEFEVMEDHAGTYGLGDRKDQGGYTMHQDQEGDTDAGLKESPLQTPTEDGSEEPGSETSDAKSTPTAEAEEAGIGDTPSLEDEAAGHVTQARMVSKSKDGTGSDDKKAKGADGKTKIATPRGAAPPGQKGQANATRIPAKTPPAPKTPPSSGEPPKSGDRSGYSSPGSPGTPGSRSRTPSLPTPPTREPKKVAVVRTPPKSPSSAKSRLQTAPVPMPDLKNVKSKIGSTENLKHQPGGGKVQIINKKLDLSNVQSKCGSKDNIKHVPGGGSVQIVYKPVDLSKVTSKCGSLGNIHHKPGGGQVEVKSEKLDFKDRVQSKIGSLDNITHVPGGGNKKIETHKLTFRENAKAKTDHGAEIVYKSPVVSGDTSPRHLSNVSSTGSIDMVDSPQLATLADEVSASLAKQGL

B1: HJ8.5 (antibody, V domains shown)
VH: EVKVEESGGGLVQPGGSMKLSCVVSGFTFSNYWVNWVRQSPEKGLEWVAQIRLKSDNYATHYEESVKGRFTISRDDSKSSVYLQMNNLRAEDSGIYYCTNWEDYWGQGTTLTVSS
VL: DIVLTQSPASLAVSLGQRATISCRASQSVSTSRYSYIHWYQQKPGQPPKLLIKYASNLESGVPARFSGSGSGTDFTLNIHPLEEEDAATYYCHHSWEIPLTFGAGTKLELK
  antibody concentration that significantly blocked uptake and seeding activity: 0.5 µg/mL
  lowest antibody concentration that blocked seeding activity (titration against a fixed amount of P301S brain lysate): 0.25 µg/mL
